T1: FcγRIIa R (human, UniProt P12318 34-217)
T1 construct: extracellular domain; also called FcgRIIa R type; 2aR
T1 sequence (looked up): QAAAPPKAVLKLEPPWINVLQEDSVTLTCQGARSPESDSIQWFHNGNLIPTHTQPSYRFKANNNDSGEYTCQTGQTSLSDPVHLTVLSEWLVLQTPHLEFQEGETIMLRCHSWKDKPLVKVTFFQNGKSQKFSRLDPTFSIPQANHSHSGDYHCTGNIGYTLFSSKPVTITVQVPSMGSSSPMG


Molecular target: T1, FcγRIIa R
Assay: SPR (Biacore), captured antibody, FcγR as analyte; relative binding activity

| Binder | He/Con_2aR |
| --- | --- |
| GpH7-A5/GpH7-B3 variant I336_08L/GpL16-k0 (antibody, human IgG1, kappa, also called He Ab I336_08L) heavy 1: not shown heavy 2: not shown light: DIVMTQSPLSLPVTPGEPASISCQASESLVHSNRNTYLHWYLQKPGQSPQLLIYKVSNRFSGVPDRFSGSGSGTDFTLKISRVEAEDVGVYYCSQNTHVPPTFGQGTKVEIERTVAAPSVFIFPPSDEQLKSGTASVVCLLNNFYPREAKVQWKVDNALQSGNSQESVTEQDSKDSTYSLSSTLTLSKADYEKHKVYACEVTHQGLSSPVTKSFNRGEC | 110 % (GpH7-A5/GpH7-B3/GpL16-k0 = 100) |
| GpH7-A5/GpH7-B3 variant H268_03V/GpL16-k0 (antibody, human IgG1, kappa, also called He Ab H268_03V) heavy 1: not shown heavy 2: not shown light: DIVMTQSPLSLPVTPGEPASISCQASESLVHSNRNTYLHWYLQKPGQSPQLLIYKVSNRFSGVPDRFSGSGSGTDFTLKISRVEAEDVGVYYCSQNTHVPPTFGQGTKVEIERTVAAPSVFIFPPSDEQLKSGTASVVCLLNNFYPREAKVQWKVDNALQSGNSQESVTEQDSKDSTYSLSSTLTLSKADYEKHKVYACEVTHQGLSSPVTKSFNRGEC | 109 % (GpH7-A5/GpH7-B3/GpL16-k0 = 100) |
| GpH7-A5/GpH7-B3 variant K326_07I/GpL16-k0 (antibody, human IgG1, kappa, also called He Ab K326_07I) heavy 1: not shown heavy 2: not shown light: DIVMTQSPLSLPVTPGEPASISCQASESLVHSNRNTYLHWYLQKPGQSPQLLIYKVSNRFSGVPDRFSGSGSGTDFTLKISRVEAEDVGVYYCSQNTHVPPTFGQGTKVEIERTVAAPSVFIFPPSDEQLKSGTASVVCLLNNFYPREAKVQWKVDNALQSGNSQESVTEQDSKDSTYSLSSTLTLSKADYEKHKVYACEVTHQGLSSPVTKSFNRGEC | 147 % (GpH7-A5/GpH7-B3/GpL16-k0 = 100) |
| GpH7-A5/GpH7-B3 variant I336_18N/GpL16-k0 (antibody, human IgG1, kappa, also called He Ab I336_18N) heavy 1: not shown heavy 2: not shown light: DIVMTQSPLSLPVTPGEPASISCQASESLVHSNRNTYLHWYLQKPGQSPQLLIYKVSNRFSGVPDRFSGSGSGTDFTLKISRVEAEDVGVYYCSQNTHVPPTFGQGTKVEIERTVAAPSVFIFPPSDEQLKSGTASVVCLLNNFYPREAKVQWKVDNALQSGNSQESVTEQDSKDSTYSLSSTLTLSKADYEKHKVYACEVTHQGLSSPVTKSFNRGEC | 104 % (GpH7-A5/GpH7-B3/GpL16-k0 = 100) |
| GpH7-A5/GpH7-B3 variant H268_12R/GpL16-k0 (antibody, human IgG1, kappa, also called He Ab H268_12R) heavy 1: not shown heavy 2: not shown light: DIVMTQSPLSLPVTPGEPASISCQASESLVHSNRNTYLHWYLQKPGQSPQLLIYKVSNRFSGVPDRFSGSGSGTDFTLKISRVEAEDVGVYYCSQNTHVPPTFGQGTKVEIERTVAAPSVFIFPPSDEQLKSGTASVVCLLNNFYPREAKVQWKVDNALQSGNSQESVTEQDSKDSTYSLSSTLTLSKADYEKHKVYACEVTHQGLSSPVTKSFNRGEC | 105 % (GpH7-A5/GpH7-B3/GpL16-k0 = 100) |
| GpH7-A5/GpH7-B3 variant K326_12R/GpL16-k0 (antibody, human IgG1, kappa, also called He Ab K326_12R) heavy 1: not shown heavy 2: not shown light: DIVMTQSPLSLPVTPGEPASISCQASESLVHSNRNTYLHWYLQKPGQSPQLLIYKVSNRFSGVPDRFSGSGSGTDFTLKISRVEAEDVGVYYCSQNTHVPPTFGQGTKVEIERTVAAPSVFIFPPSDEQLKSGTASVVCLLNNFYPREAKVQWKVDNALQSGNSQESVTEQDSKDSTYSLSSTLTLSKADYEKHKVYACEVTHQGLSSPVTKSFNRGEC | 103 % (GpH7-A5/GpH7-B3/GpL16-k0 = 100) |
| GpH7-A5/GpH7-B3 variant K326_04F/GpL16-k0 (antibody, human IgG1, kappa, also called He Ab K326_04F) heavy 1: not shown heavy 2: not shown light: DIVMTQSPLSLPVTPGEPASISCQASESLVHSNRNTYLHWYLQKPGQSPQLLIYKVSNRFSGVPDRFSGSGSGTDFTLKISRVEAEDVGVYYCSQNTHVPPTFGQGTKVEIERTVAAPSVFIFPPSDEQLKSGTASVVCLLNNFYPREAKVQWKVDNALQSGNSQESVTEQDSKDSTYSLSSTLTLSKADYEKHKVYACEVTHQGLSSPVTKSFNRGEC | 135 % (GpH7-A5/GpH7-B3/GpL16-k0 = 100) |
| GpH7-A5/GpH7-B3 variant K334_02A/GpL16-k0 (antibody, human IgG1, kappa, also called He Ab K334_02A) heavy 1: not shown heavy 2: not shown light: DIVMTQSPLSLPVTPGEPASISCQASESLVHSNRNTYLHWYLQKPGQSPQLLIYKVSNRFSGVPDRFSGSGSGTDFTLKISRVEAEDVGVYYCSQNTHVPPTFGQGTKVEIERTVAAPSVFIFPPSDEQLKSGTASVVCLLNNFYPREAKVQWKVDNALQSGNSQESVTEQDSKDSTYSLSSTLTLSKADYEKHKVYACEVTHQGLSSPVTKSFNRGEC | 105 % (GpH7-A5/GpH7-B3/GpL16-k0 = 100) |
| GpH7-A5/GpH7-B3 variant I332_06M/GpL16-k0 (antibody, human IgG1, kappa, also called He Ab I332_06M) heavy 1: not shown heavy 2: not shown light: DIVMTQSPLSLPVTPGEPASISCQASESLVHSNRNTYLHWYLQKPGQSPQLLIYKVSNRFSGVPDRFSGSGSGTDFTLKISRVEAEDVGVYYCSQNTHVPPTFGQGTKVEIERTVAAPSVFIFPPSDEQLKSGTASVVCLLNNFYPREAKVQWKVDNALQSGNSQESVTEQDSKDSTYSLSSTLTLSKADYEKHKVYACEVTHQGLSSPVTKSFNRGEC | 109 % (GpH7-A5/GpH7-B3/GpL16-k0 = 100) |
| GpH7-A5/GpH7-B3 variant K326_15Y/GpL16-k0 (antibody, human IgG1, kappa, also called He Ab K326_15Y) heavy 1: not shown heavy 2: not shown light: DIVMTQSPLSLPVTPGEPASISCQASESLVHSNRNTYLHWYLQKPGQSPQLLIYKVSNRFSGVPDRFSGSGSGTDFTLKISRVEAEDVGVYYCSQNTHVPPTFGQGTKVEIERTVAAPSVFIFPPSDEQLKSGTASVVCLLNNFYPREAKVQWKVDNALQSGNSQESVTEQDSKDSTYSLSSTLTLSKADYEKHKVYACEVTHQGLSSPVTKSFNRGEC | 136 % (GpH7-A5/GpH7-B3/GpL16-k0 = 100) |
| GpH7-A5/GpH7-B3 variant I336_06M/GpL16-k0 (antibody, human IgG1, kappa, also called He Ab I336_06M) heavy 1: not shown heavy 2: not shown light: DIVMTQSPLSLPVTPGEPASISCQASESLVHSNRNTYLHWYLQKPGQSPQLLIYKVSNRFSGVPDRFSGSGSGTDFTLKISRVEAEDVGVYYCSQNTHVPPTFGQGTKVEIERTVAAPSVFIFPPSDEQLKSGTASVVCLLNNFYPREAKVQWKVDNALQSGNSQESVTEQDSKDSTYSLSSTLTLSKADYEKHKVYACEVTHQGLSSPVTKSFNRGEC | 106 % (GpH7-A5/GpH7-B3/GpL16-k0 = 100) |

Reference: patent US20150344570A1 (published 2015)
